# Values of other authors, collected in US20060183681A1, “Stabilized compositions containing natriuretic peptides” (Bio-Rad Laboratories, Inc., priority 2005, published 2006).
substance,measurement,value
B-type natriuretic peptide [BNP],half-life (t1/2) in vivo,approximately 23 minutes
